In patent CN113683687A (EXCYTE BEIJING PHARMACEUTICAL TECH DEVELOPMENT CO LTD, dated 2021):
Changes are numbered by the printed parent chain.

B1: CS1 (Fc fusion)
VH: QVQLQQSGAEVKKPGSSVKVSCKASGGTFSSYAISWVRQAPGQGLEWMGGIIPIFGTANYAQKFQGRVTITADESTSTAYMELSSLRSEDTAVYYCARDRGVGRGYSYGFLPLDYWGQGTLVTVSS
VL: DIQMTQSPLSLPATPGEPASISCRSSQSLLHSDGYSYLHWYVQKPGQSPQLLISADSNRASGVPGRFSGSGSGTDFTLKISRVEAEDVGVYYCMQALQTPWTFGQGTKLDIK
notes: also called 抗体CS1
B2: CS2 (Fc fusion)
VH: EVQLVQSGAEVKKPGASVKVSCKASGGTFSSYAISWVRQAPGQGLEWMGGIIPIFGTANYAQKFQGRVTITADESTSTAYMELSSLRSEDTAVYYCARGSGDYGMDVWGQGTTVTVSS
VL: QSALTQPASVSGSPGQSITISCTGTSSDVGGYNYVSWYQQHPGKAPKLVISEVRNRPSGVSNRFSGSKSGNTASLTISGLQAEDEADYYCSSYTTRDTRVFGGGTQLTVL
notes: also called 抗体CS2
B3: CS3 (Fc fusion)
VH: B2 VH with A16S, E74K
VL: B2 VL with G31L, V49M, I50V, R54S, Q106K, L107V
notes: also called 抗体CS3
B4: CS7 (Fc fusion)
VH: B2 VH with A16S, F55L, T57I, E74K, G104S, T113L
VL: B2 VL with T5A, S36A, V49M, S51Y, R54S, Q106K
notes: also called 抗体CS7

Target: T1, 新型冠状病毒(2019-nCoV)Spike蛋白 (全长三聚体S蛋白) (新型冠状病毒(2019-nCoV), UniProt P0DTC2 16-1213)
T1 construct: also called 病毒S蛋白
Test: Octet Blitz (BLI), scFv-Fc, apparent affinity

Binder | Kd [nM]
B1 | 1.2
B2 | 2.1
B3 | 23.2
B4 | 12.3
